Experimental findings from patent publication US20260049138A1 (Chugai, published 2026) are described below.

Numbering of substitutions follows the chain as printed. Names may count otherwise.

The chains are these.
B1: CE115HA000 D101F one-arm antibody (antibody, human IgG1, kappa, L234A L235A, N297A, name in Kabat numbering)
heavy: QVQLVESGGGVVQPGRSLRLSCAASGFTFSNAWMHWVRQAPGKGLEWVAQIKAKSNNYATYYAESVKGRFTISRDDSKNSLYLQMNSLKTEDTAVYYCRYVHYGAYYGVFAWGQGTTVTVSSASTKGPSVFPLAPSSKSTSGGTAALGCLVKDYFPEPVTVSWNSGALTSGVHTFPAVLQSSGLYSLSSVVTVPSSSLGTQTYICNVNHKPSNTKVDKKVEPKSCDKTHTCPPCPAPEAAGGPSVFLFPPKPKDTLMISRTPEVTCVVVDVSHEDPEVKFNWYVDGVEVHNAKTKPREEQYASTYRVVSVLTVLHQDWLNGKEYKCKVSNKALPAPIEKTISKAKGQPREPQVYTLPPSRCELTKNQVSLSCAVKGFYPSDIAVEWESNGQPENNYKTTPPVLDSDGSFFLVSKLTVDKSRWQQGNVFSCSVMHEALHNHYTQKSLSLSPDYKDDDDK
chain: EPKSSDKTHTCPPCPAPELLGGPSVFLFPPKPKDTLMISRTPEVTCVVVDVSHEDPEVKFNWYVDGVEVHNAKTKPREEQYNSTYRVVSVLTVLHQDWLNGKEYKCKVSNKALPAPIEKTISKAKGQPREPQVCTLPPSRDELTKNQVSLWCLVKGFYPSDIAVEWESNGQPENNYKTTPPVLDSDGSFFLYSKLTVDKSRWQQGNVFSCSVMHEALHNRYTQKSLSLSP
light: DIVMTQSPLSLPVTPGEPASISCRSSQSLVHSNRNTYLHWYQQKPGQAPRLLIYKVSNRFSGVPDRFSGSGSGTDFTLKISRVEAEDVGVYYCGQGTQVPYTFGQGTKLEIKRTVAAPSVFIFPPSDEQLKSGTASVVCLLNNFYPREAKVQWKVDNALQSGNSQESVTEQDSKDSTYSLSSTLTLSKADYEKHKVYACEVTHQGLSSPVTKSFNRGEC
B2: CE115HA000 G98T one-arm antibody (antibody, human IgG1, kappa, L234A L235A, N297A, name in Kabat numbering)
heavy: B1 heavy with G104T, F110D
chain: B1 chain
light: B1 light
B3: CE115HA000 D101K one-arm antibody (antibody, human IgG1, kappa, L234A L235A, N297A, name in Kabat numbering)
heavy: B1 heavy with F110K
chain: B1 chain
light: B1 light
B4: CE115HA000 D101T one-arm antibody (antibody, human IgG1, kappa, L234A L235A, N297A, name in Kabat numbering)
heavy: B1 heavy with F110T
chain: B1 chain
light: B1 light
B5: CE115HA000 G98R one-arm antibody (antibody, human IgG1, kappa, L234A L235A, N297A, name in Kabat numbering)
heavy: B1 heavy with G104R, F110D
chain: B1 chain
light: B1 light
B6: CE115HA000 D101H one-arm antibody (antibody, human IgG1, kappa, L234A L235A, N297A, name in Kabat numbering)
heavy: B1 heavy with F110H
chain: B1 chain
light: B1 light
B7: CE115HA000 G65D one-arm antibody (antibody, human IgG1, kappa, L234A L235A, N297A, name in Kabat numbering)
heavy: B1 heavy with G68D, F110D
chain: B1 chain
light: B1 light
B8: CE115HA000 G98Q one-arm antibody (antibody, human IgG1, kappa, L234A L235A, N297A, name in Kabat numbering)
heavy: B1 heavy with G104Q, F110D
chain: B1 chain
light: B1 light
B9: CE115HA000 G65E one-arm antibody (antibody, human IgG1, kappa, L234A L235A, N297A, name in Kabat numbering)
heavy: B1 heavy with G68E, F110D
chain: B1 chain
light: B1 light
B10: CE115HA000 E61A one-arm antibody (antibody, human IgG1, kappa, L234A L235A, N297A, name in Kabat numbering)
heavy: B1 heavy with E64A, F110D
chain: B1 chain
light: B1 light
B11: CE115HA000 G98S one-arm antibody (antibody, human IgG1, kappa, L234A L235A, N297A, name in Kabat numbering)
heavy: B1 heavy with G104S, F110D
chain: B1 chain
light: B1 light
B12: CE115HA000 D101G one-arm antibody (antibody, human IgG1, kappa, L234A L235A, N297A, name in Kabat numbering)
heavy: B1 heavy with F110G
chain: B1 chain
light: B1 light
B13: CE115HA000 D101P one-arm antibody (antibody, human IgG1, kappa, L234A L235A, N297A, name in Kabat numbering)
heavy: B1 heavy with F110P
chain: B1 chain
light: B1 light
B14: CE115HA000 E61Q one-arm antibody (antibody, human IgG1, kappa, L234A L235A, N297A, name in Kabat numbering)
heavy: B1 heavy with E64Q, F110D
chain: B1 chain
light: B1 light
B15: CE115HA000 D101I one-arm antibody (antibody, human IgG1, kappa, L234A L235A, N297A, name in Kabat numbering)
heavy: B1 heavy with F110I
chain: B1 chain
light: B1 light
B16: CE115HA000 D101M one-arm antibody (antibody, human IgG1, kappa, L234A L235A, N297A, name in Kabat numbering)
heavy: B1 heavy with F110M
chain: B1 chain
light: B1 light
B17: CE115HA000 D101R one-arm antibody (antibody, human IgG1, kappa, L234A L235A, N297A, name in Kabat numbering)
heavy: B1 heavy with F110R
chain: B1 chain
light: B1 light
B18: CE115HA000 E61P one-arm antibody (antibody, human IgG1, kappa, L234A L235A, N297A, name in Kabat numbering)
heavy: B1 heavy with E64P, F110D
chain: B1 chain
light: B1 light
B19: CE115HA000 E61D one-arm antibody (antibody, human IgG1, kappa, L234A L235A, N297A, name in Kabat numbering)
heavy: B1 heavy with E64D, F110D
chain: B1 chain
light: B1 light
B20: CE115HA000 G98P one-arm antibody (antibody, human IgG1, kappa, L234A L235A, N297A, name in Kabat numbering)
heavy: B1 heavy with G104P, F110D
chain: B1 chain
light: B1 light
B21: CE115HA000 D101Q one-arm antibody (antibody, human IgG1, kappa, L234A L235A, N297A, name in Kabat numbering)
heavy: B1 heavy with F110Q
chain: B1 chain
light: B1 light
B22: CE115HA000 D101V one-arm antibody (antibody, human IgG1, kappa, L234A L235A, N297A, name in Kabat numbering)
heavy: B1 heavy with F110V
chain: B1 chain
light: B1 light
B23: CE115HA000 F29V one-arm antibody (antibody, human IgG1, kappa, L234A L235A, N297A, name in Kabat numbering)
heavy: B1 heavy with F29V, F110D
chain: B1 chain
light: B1 light
B24: CE115HA000 G98H one-arm antibody (antibody, human IgG1, kappa, L234A L235A, N297A, name in Kabat numbering)
heavy: B1 heavy with G104H, F110D
chain: B1 chain
light: B1 light
B25: CE115HA000 D101N one-arm antibody (antibody, human IgG1, kappa, L234A L235A, N297A, name in Kabat numbering)
heavy: B1 heavy with F110N
chain: B1 chain
light: B1 light
B26: CE115HA000 G98K one-arm antibody (antibody, human IgG1, kappa, L234A L235A, N297A, name in Kabat numbering)
heavy: B1 heavy with G104K, F110D
chain: B1 chain
light: B1 light
B27: CE115HA000 D101L one-arm antibody (antibody, human IgG1, kappa, L234A L235A, N297A, name in Kabat numbering)
heavy: B1 heavy with F110L
chain: B1 chain
light: B1 light
B28: CE115HA000 D101S one-arm antibody (antibody, human IgG1, kappa, L234A L235A, N297A, name in Kabat numbering)
heavy: B1 heavy with F110S
chain: B1 chain
light: B1 light
B29: CE115HA000 G98D one-arm antibody (antibody, human IgG1, kappa, L234A L235A, N297A, name in Kabat numbering)
heavy: B1 heavy with G104D, F110D
chain: B1 chain
light: B1 light
B30: CE115HA000 D101Y one-arm antibody (antibody, human IgG1, kappa, L234A L235A, N297A, name in Kabat numbering)
heavy: B1 heavy with F110Y
chain: B1 chain
light: B1 light
B31: CE115HA000 G98A one-arm antibody (antibody, human IgG1, kappa, L234A L235A, N297A, name in Kabat numbering)
heavy: B1 heavy with G104A, F110D
chain: B1 chain
light: B1 light

T1 sequence (P07766 23-126 limits assumed): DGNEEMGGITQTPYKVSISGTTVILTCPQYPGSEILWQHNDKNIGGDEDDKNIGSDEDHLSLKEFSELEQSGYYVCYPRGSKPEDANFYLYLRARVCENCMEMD

The experiment has as its target T1, CD3ε homodimer protein (human, UniProt P07766 23-126, limits assumed, sulfo-tag or biotin label in the ECL assays; amine-coupled to the chip in SPR).
T1 construct: also called human CD3ε homodimer protein; CD3 (CD3ε)
Description: SPR Biacore T200; CD3ε homodimer on CM4 chip.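 Further: Single-residue variant antibodies injected as analyte over CD3ε homodimer immobilized by amine coupling, run at 25 °C in HBS-EP+ buffer.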 In general terms: In SPR one partner is held on a chip, and binding of the other changes the refractive index at the surface.
On to B1, for which the “ratio of amounts bound Z=Y/X (altered form / CE115HA000)” value was 0.75.

B2: the “ratio of amounts bound Z=Y/X (altered form / CE115HA000)” value amounted to 1.05.

Consider B3, for which the “ratio of amounts bound Z=Y/X (altered form / CE115HA000)” value was found to be 0.63.

B4: the “ratio of amounts bound Z=Y/X (altered form / CE115HA000)” value turned out to be 0.79.

Regarding B5, the “ratio of amounts bound Z=Y/X (altered form / CE115HA000)” value amounted to 2.96.

Take B6: the “ratio of amounts bound Z=Y/X (altered form / CE115HA000)” value was 1.21.

On to B7, for which the “ratio of amounts bound Z=Y/X (altered form / CE115HA000)” value amounted to 0.76.

For the molecule B8, the “ratio of amounts bound Z=Y/X (altered form / CE115HA000)” value came to 1.22.

Regarding B9, the “ratio of amounts bound Z=Y/X (altered form / CE115HA000)” value amounted to 0.78.

For B10, the “ratio of amounts bound Z=Y/X (altered form / CE115HA000)” value was found to be 1.09.

Regarding B11, the “ratio of amounts bound Z=Y/X (altered form / CE115HA000)” value was found to be 1.01.

For B12, the “ratio of amounts bound Z=Y/X (altered form / CE115HA000)” value was 1.38.

Regarding B13, the “ratio of amounts bound Z=Y/X (altered form / CE115HA000)” value came to 0.2.

Regarding B14, the “ratio of amounts bound Z=Y/X (altered form / CE115HA000)” value was 1.07.

B15: the “ratio of amounts bound Z=Y/X (altered form / CE115HA000)” value was 1.18.

Regarding B16, the “ratio of amounts bound Z=Y/X (altered form / CE115HA000)” value stood at 1.2.

With B17, the “ratio of amounts bound Z=Y/X (altered form / CE115HA000)” value turned out to be 0.24.

As to B18, the “ratio of amounts bound Z=Y/X (altered form / CE115HA000)” value came to 1.07.

As to B19, the “ratio of amounts bound Z=Y/X (altered form / CE115HA000)” value came out at 0.91.

With B20, the “ratio of amounts bound Z=Y/X (altered form / CE115HA000)” value worked out at 1.02.

Consider B21, for which the “ratio of amounts bound Z=Y/X (altered form / CE115HA000)” value came to 2.35.

For B22, the “ratio of amounts bound Z=Y/X (altered form / CE115HA000)” value was found to be 1.33.

On to B23, for which the “ratio of amounts bound Z=Y/X (altered form / CE115HA000)” value was found to be 0.36.

As to B24, the “ratio of amounts bound Z=Y/X (altered form / CE115HA000)” value was 1.58.

As to B25, the “ratio of amounts bound Z=Y/X (altered form / CE115HA000)” value was determined as 2.02.

For B26, the “ratio of amounts bound Z=Y/X (altered form / CE115HA000)” value amounted to 2.83.

As for B27, the “ratio of amounts bound Z=Y/X (altered form / CE115HA000)” value came out at 0.62.

Take B28: the “ratio of amounts bound Z=Y/X (altered form / CE115HA000)” value amounted to 1.16.

For B29, the “ratio of amounts bound Z=Y/X (altered form / CE115HA000)” value came out at 0.26.

In the case of B30, the “ratio of amounts bound Z=Y/X (altered form / CE115HA000)” value was 0.49.

On to B31, for which the “ratio of amounts bound Z=Y/X (altered form / CE115HA000)” value was 1.1.
